Test results published in patent US20140087995A1 (published 2014).
Numbered stars: 1 amine (or outer) side, 2 acyl side, 3 side chain; on linkers, the order of the positions; unused ones are H or OH. Bridge positions count the residues as written; N and C are the ends. * marks the point of attachment. C20 diacid = O=C(O)CCCCCCCCCCCCCCCCCCC(=O)*; γGlu = O=C(O)[C@H](CCC(=O)[*:2])N[*:1]

T1: rat calcitonin receptor (rat, UniProt P32214 25-516)
T1 construct: whole, on cells; Used as membranes prepared from the transfected cells; also called rCTR; rat calcitonin (a) receptor
T1 sequence (looked up): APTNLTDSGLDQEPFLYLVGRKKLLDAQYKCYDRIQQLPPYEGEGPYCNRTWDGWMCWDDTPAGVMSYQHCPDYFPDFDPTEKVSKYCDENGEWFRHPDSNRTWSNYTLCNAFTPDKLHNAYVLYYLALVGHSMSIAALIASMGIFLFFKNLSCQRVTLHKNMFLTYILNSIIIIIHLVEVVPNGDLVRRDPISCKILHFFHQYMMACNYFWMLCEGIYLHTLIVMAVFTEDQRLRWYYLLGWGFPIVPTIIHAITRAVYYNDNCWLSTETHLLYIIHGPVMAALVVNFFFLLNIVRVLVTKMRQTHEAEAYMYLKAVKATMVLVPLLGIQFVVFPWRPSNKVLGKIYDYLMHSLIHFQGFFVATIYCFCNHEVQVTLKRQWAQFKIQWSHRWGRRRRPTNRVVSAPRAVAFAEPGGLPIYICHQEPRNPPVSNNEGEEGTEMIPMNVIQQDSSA

T2: human calcitonin receptor (human, UniProt P30988 25-474)
T2 construct: whole, on cells; Used as membranes prepared from the transfected cells (Assay VII); also called hCTR; hCT
T2 sequence (looked up): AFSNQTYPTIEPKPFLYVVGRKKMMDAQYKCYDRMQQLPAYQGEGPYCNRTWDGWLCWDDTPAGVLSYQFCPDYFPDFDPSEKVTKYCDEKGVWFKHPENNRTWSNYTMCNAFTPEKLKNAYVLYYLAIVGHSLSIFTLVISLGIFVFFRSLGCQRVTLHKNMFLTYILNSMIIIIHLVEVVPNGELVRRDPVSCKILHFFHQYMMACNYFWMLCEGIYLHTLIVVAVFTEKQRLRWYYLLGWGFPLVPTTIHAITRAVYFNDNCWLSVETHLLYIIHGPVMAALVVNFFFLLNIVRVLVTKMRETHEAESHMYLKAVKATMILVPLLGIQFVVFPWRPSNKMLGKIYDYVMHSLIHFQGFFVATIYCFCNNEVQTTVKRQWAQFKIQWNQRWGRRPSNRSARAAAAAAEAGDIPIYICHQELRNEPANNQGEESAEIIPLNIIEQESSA

T3: rat amylin receptor (rat calcitonin receptor + rat RAMP 3) (rat, UniProt P32214 25-516; Q9JJ73 23-147)
T3 construct: whole, on cells; Used as membranes prepared from the transfected cells; also called rAmylin-R; rat amylin 3(a) receptor
T3 sequence (looked up) 1: T1 sequence (looked up)
T3 sequence (looked up) 2: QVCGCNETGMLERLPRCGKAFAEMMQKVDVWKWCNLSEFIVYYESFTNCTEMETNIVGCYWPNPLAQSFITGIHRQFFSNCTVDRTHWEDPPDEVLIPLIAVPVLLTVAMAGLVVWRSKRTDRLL

B1: N^α1-[(4S)-4-carboxy-4-(19-carboxynonadecanoylamino)butanoyl]-[Glu14,Arg17,Pro21,Pro26]-h-amylin (peptide)
peptide: {C20 diacid-γGlu}-KCNTATCATQRLAEFLRHSSPNFGAPLSSTNVGSNTY-NH2
modifications: disulfide 2-7
SMILES: CC(C)C[C@H](NC(=O)[C@H](CCCNC(=N)N)NC(=O)[C@H](CCC(N)=O)NC(=O)[C@@H](NC(=O)[C@H](C)NC(=O)[C@@H]1CSSC[C@H](NC(=O)[C@H](CCCCN)NC(=O)CC[C@H](NC(=O)CCCCCCCCCCCCCCCCCCC(=O)O)C(=O)O)C(=O)N[C@@H](CC(N)=O)C(=O)N[C@@H]([C@@H](C)O)C(=O)N[C@@H](C)C(=O)N[C@@H]([C@@H](C)O)C(=O)N1)[C@@H](C)O)C(=O)N[C@@H](C)C(=O)N[C@@H](CCC(=O)O)C(=O)N[C@@H](Cc1ccccc1)C(=O)N[C@@H](CC(C)C)C(=O)N[C@@H](CCCNC(=N)N)C(=O)N[C@@H](Cc1c[nH]cn1)C(=O)N[C@@H](CO)C(=O)N[C@@H](CO)C(=O)N1CCC[C@H]1C(=O)N[C@@H](CC(N)=O)C(=O)N[C@@H](Cc1ccccc1)C(=O)NCC(=O)N[C@@H](C)C(=O)N1CCC[C@H]1C(=O)N[C@@H](CC(C)C)C(=O)N[C@@H](CO)C(=O)N[C@@H](CO)C(=O)N[C@H](C(=O)N[C@@H](CC(N)=O)C(=O)N[C@H](C(=O)NCC(=O)N[C@@H](CO)C(=O)N[C@@H](CC(N)=O)C(=O)N[C@H](C(=O)N[C@@H](Cc1ccc(O)cc1)C(N)=O)[C@@H](C)O)C(C)C)[C@@H](C)O
notes: Derivative of human amylin; also called compound 7
B2: N^α1-[(4S)-4-carboxy-4-(19-carboxynonadecanoylamino)butanoyl]-[Glu14,Arg17,Pro21,Pro27,Arg35]-h-amylin (peptide)
peptide: {C20 diacid-γGlu}-KCNTATCATQRLAEFLRHSSPNFGAIPSSTNVGSRTY-NH2
modifications: disulfide 2-7
SMILES: CC[C@H](C)[C@H](NC(=O)[C@H](C)NC(=O)CNC(=O)[C@H](Cc1ccccc1)NC(=O)[C@H](CC(N)=O)NC(=O)[C@@H]1CCCN1C(=O)[C@H](CO)NC(=O)[C@H](CO)NC(=O)[C@H](Cc1c[nH]cn1)NC(=O)[C@H](CCCNC(=N)N)NC(=O)[C@H](CC(C)C)NC(=O)[C@H](Cc1ccccc1)NC(=O)[C@H](CCC(=O)O)NC(=O)[C@H](C)NC(=O)[C@H](CC(C)C)NC(=O)[C@H](CCCNC(=N)N)NC(=O)[C@H](CCC(N)=O)NC(=O)[C@@H](NC(=O)[C@H](C)NC(=O)[C@@H]1CSSC[C@H](NC(=O)[C@H](CCCCN)NC(=O)CC[C@H](NC(=O)CCCCCCCCCCCCCCCCCCC(=O)O)C(=O)O)C(=O)N[C@@H](CC(N)=O)C(=O)N[C@@H]([C@@H](C)O)C(=O)N[C@@H](C)C(=O)N[C@@H]([C@@H](C)O)C(=O)N1)[C@@H](C)O)C(=O)N1CCC[C@H]1C(=O)N[C@@H](CO)C(=O)N[C@@H](CO)C(=O)N[C@H](C(=O)N[C@@H](CC(N)=O)C(=O)N[C@H](C(=O)NCC(=O)N[C@@H](CO)C(=O)N[C@@H](CCCNC(=N)N)C(=O)N[C@H](C(=O)N[C@@H](Cc1ccc(O)cc1)C(N)=O)[C@@H](C)O)C(C)C)[C@@H](C)O
notes: Derivative of human amylin; also called compound 16
B3: N^α1-[(4S)-4-carboxy-4-(19-carboxynonadecanoylamino)butanoyl]-[Glu14,Arg17,Pro21,Pro27,His34]-h-amylin (peptide)
peptide: {C20 diacid-γGlu}-KCNTATCATQRLAEFLRHSSPNFGAIPSSTNVGHNTY-NH2
modifications: disulfide 2-7
SMILES: CC[C@H](C)[C@H](NC(=O)[C@H](C)NC(=O)CNC(=O)[C@H](Cc1ccccc1)NC(=O)[C@H](CC(N)=O)NC(=O)[C@@H]1CCCN1C(=O)[C@H](CO)NC(=O)[C@H](CO)NC(=O)[C@H](Cc1c[nH]cn1)NC(=O)[C@H](CCCNC(=N)N)NC(=O)[C@H](CC(C)C)NC(=O)[C@H](Cc1ccccc1)NC(=O)[C@H](CCC(=O)O)NC(=O)[C@H](C)NC(=O)[C@H](CC(C)C)NC(=O)[C@H](CCCNC(=N)N)NC(=O)[C@H](CCC(N)=O)NC(=O)[C@@H](NC(=O)[C@H](C)NC(=O)[C@@H]1CSSC[C@H](NC(=O)[C@H](CCCCN)NC(=O)CC[C@H](NC(=O)CCCCCCCCCCCCCCCCCCC(=O)O)C(=O)O)C(=O)N[C@@H](CC(N)=O)C(=O)N[C@@H]([C@@H](C)O)C(=O)N[C@@H](C)C(=O)N[C@@H]([C@@H](C)O)C(=O)N1)[C@@H](C)O)C(=O)N1CCC[C@H]1C(=O)N[C@@H](CO)C(=O)N[C@@H](CO)C(=O)N[C@H](C(=O)N[C@@H](CC(N)=O)C(=O)N[C@H](C(=O)NCC(=O)N[C@@H](Cc1c[nH]cn1)C(=O)N[C@@H](CC(N)=O)C(=O)N[C@H](C(=O)N[C@@H](Cc1ccc(O)cc1)C(N)=O)[C@@H](C)O)C(C)C)[C@@H](C)O
notes: Derivative of human amylin; also called compound 17
B4: N^α1-[(4S)-4-carboxy-4-(19-carboxynonadecanoylamino)butanoyl]-[Glu14,Arg17,Pro21,Pro27,Pro29]-h-amylin (peptide)
peptide: {C20 diacid-γGlu}-KCNTATCATQRLAEFLRHSSPNFGAIPSPTNVGSNTY-NH2
modifications: disulfide 2-7
SMILES: CC[C@H](C)[C@H](NC(=O)[C@H](C)NC(=O)CNC(=O)[C@H](Cc1ccccc1)NC(=O)[C@H](CC(N)=O)NC(=O)[C@@H]1CCCN1C(=O)[C@H](CO)NC(=O)[C@H](CO)NC(=O)[C@H](Cc1c[nH]cn1)NC(=O)[C@H](CCCNC(=N)N)NC(=O)[C@H](CC(C)C)NC(=O)[C@H](Cc1ccccc1)NC(=O)[C@H](CCC(=O)O)NC(=O)[C@H](C)NC(=O)[C@H](CC(C)C)NC(=O)[C@H](CCCNC(=N)N)NC(=O)[C@H](CCC(N)=O)NC(=O)[C@@H](NC(=O)[C@H](C)NC(=O)[C@@H]1CSSC[C@H](NC(=O)[C@H](CCCCN)NC(=O)CC[C@H](NC(=O)CCCCCCCCCCCCCCCCCCC(=O)O)C(=O)O)C(=O)N[C@@H](CC(N)=O)C(=O)N[C@@H]([C@@H](C)O)C(=O)N[C@@H](C)C(=O)N[C@@H]([C@@H](C)O)C(=O)N1)[C@@H](C)O)C(=O)N1CCC[C@H]1C(=O)N[C@@H](CO)C(=O)N1CCC[C@H]1C(=O)N[C@H](C(=O)N[C@@H](CC(N)=O)C(=O)N[C@H](C(=O)NCC(=O)N[C@@H](CO)C(=O)N[C@@H](CC(N)=O)C(=O)N[C@H](C(=O)N[C@@H](Cc1ccc(O)cc1)C(N)=O)[C@@H](C)O)C(C)C)[C@@H](C)O
notes: Derivative of human amylin; also called compound 37
B5: N^α1-[(4S)-4-carboxy-4-(19-carboxynonadecanoylamino)butanoyl]-[Glu14,Arg17,Pro21,Pro27,His35]-h-amylin (peptide)
peptide: {C20 diacid-γGlu}-KCNTATCATQRLAEFLRHSSPNFGAIPSSTNVGSHTY-NH2
modifications: disulfide 2-7
SMILES: CC[C@H](C)[C@H](NC(=O)[C@H](C)NC(=O)CNC(=O)[C@H](Cc1ccccc1)NC(=O)[C@H](CC(N)=O)NC(=O)[C@@H]1CCCN1C(=O)[C@H](CO)NC(=O)[C@H](CO)NC(=O)[C@H](Cc1c[nH]cn1)NC(=O)[C@H](CCCNC(=N)N)NC(=O)[C@H](CC(C)C)NC(=O)[C@H](Cc1ccccc1)NC(=O)[C@H](CCC(=O)O)NC(=O)[C@H](C)NC(=O)[C@H](CC(C)C)NC(=O)[C@H](CCCNC(=N)N)NC(=O)[C@H](CCC(N)=O)NC(=O)[C@@H](NC(=O)[C@H](C)NC(=O)[C@@H]1CSSC[C@H](NC(=O)[C@H](CCCCN)NC(=O)CC[C@H](NC(=O)CCCCCCCCCCCCCCCCCCC(=O)O)C(=O)O)C(=O)N[C@@H](CC(N)=O)C(=O)N[C@@H]([C@@H](C)O)C(=O)N[C@@H](C)C(=O)N[C@@H]([C@@H](C)O)C(=O)N1)[C@@H](C)O)C(=O)N1CCC[C@H]1C(=O)N[C@@H](CO)C(=O)N[C@@H](CO)C(=O)N[C@H](C(=O)N[C@@H](CC(N)=O)C(=O)N[C@H](C(=O)NCC(=O)N[C@@H](CO)C(=O)N[C@@H](Cc1c[nH]cn1)C(=O)N[C@H](C(=O)N[C@@H](Cc1ccc(O)cc1)C(N)=O)[C@@H](C)O)C(C)C)[C@@H](C)O
notes: Derivative of human amylin; also called compound 18

target: T1, rat calcitonin receptor; assay: ratio IC50 rat calcitonin receptor / IC50 rat amylin receptor (Assays VIII and VI)

Ratio rCT/rAmylin binding | Binder
42 | B1
45.6 | B2
35.9 | B3
14.3 | B4
27.3 | B5

target: T2, human calcitonin receptor; assay: ratio IC50 human calcitonin receptor / IC50 human amylin receptor (Assays VII and V)
Procedure, shortened: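 IC₅₀ values were derived by one-site competition analysis of SPA counts. Cell membranes (35 ng/μL) with SPA beads were incubated with test compounds for 120 min at 25° C in Hepes buffer, pH 7.4, containing CaCl2, MgCl₂, OA and Tween20.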

Ratio hCT/hAmylin binding | Binder
16.5 | B1
19.1 | B2
12.5 | B3
2.3 | B4
9.2 | B5

target: T1, rat calcitonin receptor; assay: SPA competition with 125I-calcitonin, membranes of BHK cells with rat calcitonin receptor (Assay VIII)

IC50 | Binder
47.2 nM | B1
55.2 nM | B2
97.2 nM | B3
7.35 nM | B4
13 nM | B5

target: T3, rat amylin receptor (rat calcitonin …); assay: SPA competition with 125I-rat amylin, membranes of BHK cells with rat calcitonin receptor + rat RAMP3 (Assay VI)

IC50 | Binder
1.12 nM | B1
1.21 nM | B2
2.71 nM | B3
0.514 nM | B4
0.476 nM | B5
